Experiment: soluble fraction after stress (log2 fold change); higher = more stays soluble; pooled small domains, quantitative proteomics
Settings: stress: 75 degC
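Further: 20 min heating vs room temperature control held 20 min.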

Row | Sequence | soluble fraction (log2)
1 | HMGAGFREAIPPALDGERIDRVVSLLAYVSRNRAAGALAAGSVSVDGEVVFQRSRRVREGEELVVTGFERE | -1.01
2 | HMGAITGLQSRVAFLKGQGTITDAEAKTAMAFLPDPTDSKEVKIAKIGQAREYIMSLIENRA | -0.267
3 | HMGAIVTGTVVEIRSDVVIVNAGLKSEGVVPIEQFRNEAGELEVSVGDEVKVALDALEDGFGETRLS | -0.347
4 | HMGAIVTVPDLAGRPQPGAEAELRRSGLVPKVRTSYSLTGTRGTVISQTPPAGSRVREGAEVEVVVSRGLN | 0.00469
5 | HMGAKLTTAQGGTLKVLVKGKKTHTPTIELRDKDPDFPNAKVVQPDINKGNKQIAHGINGVL | 0.686
6 | HMGALAITPDFVGQTREEAERFLRDLDLSFDIGGKGDRILRQEPVAGQRMNLDQPMKLWVGSMNA | 0.245
7 | HMGANAVAAFTARVRTGPSTGYPVRISVPQGRQVRVISGPYGGWYRVSYQGLTGYTYGGLLRQG | -0.673
8 | HMGAPAISYSKFLEQVDRKNVASVTIYKDGRIDGVMTSGSRFATESPSDPGLVGDLLKAGVEIRAKPP | 0.177
9 | HMGAPVIYELTAESAAGQRIDKYLSGQLADLSRSYLQKLLKDGGVEVNKKPVKSNYKLSEGDQIRLEVPEA | 0.0457
10 | HMGAQINSPISGTILKYLVKNGDKITKDQPLVNIESMKMENTIKSDKEGIVNNINFKIGDSVNTADTLLTL | 0.0698
11 | HMGAQKITIPDFSNQEATQVYAELKNMGLEYTESRMNHPSIASGYVIKTEPTKGSEVKAGTTVTVYVSLG | -0.112
12 | HMGARHPLPYPFARAHGLLLEADGERSTLWASTNVSPAALSEVMRKYAVDVIEEEPPETLSQRIAAAYAA | -0.155
13 | HMGASFITSSKDNAINIRESATTDSKVIETIKNGEILESTEKSGDWHKVTYYNSEIKKSFTGYIHNSQLK | 0.426
14 | HMGASLVIVPGAGFLRVSASSQTRLDVYSITGMRVRSVDFEPGTTEIELPAGFYIAGGRKFFV | -2.42
15 | HMGAYITYEVKPGDTLWDIANKFPGVSADNIKTWNKVDELIKAGERLKINTQTITDYSPDKYPS | -0.242
16 | HMGDADDLSRELLQQGLSLKEAVADFERRYLQQAMQRHSSIASVSEALDVHFSTLWRKLVKYNLV | -0.104
17 | HMGDADDLTRIKGIGPKLSKTLNELGIYHFRQIAGWQSDEADWVDDYLSFKGRVMREQWIEQAQKFAS | -0.475
18 | HMGDAIPVPDVSGFSEDQAMNNLRKVGLRPKATYVADDNTAKGYVTGTSPAKNIEVAPDSEVIVYVSSGP | 0.697
19 | HMGDAPLITVDKRTIKVNGAKAQIQVYDTTGRLVKNVSPAGKLTLIEMAKPGIFIVHTQSMSFKVVL | -0.351
20 | HMGDAVYSKVKDLVNTYNALAKQTGKSDLVSISQSRTWMVNDTKAHEVQWNKIGITIEDDQTLTI | 0.0968
21 | HMGDLDLVTFGQRLRHLRRSRNMTLSELGERVGRAPSQLSLLENGKREPKLSLLTALAKALDVSVEEL | -1.05
22 | HMGDLVKGKVVGYDPDNVIVDIGAKTNALVPNREAVVEAGDDIKETLKKGNEYEFLIIRDEDEEGEFL | 0.24
23 | HMGDPEYFKKQLGDFMDRFNITSEDIKNLSIAGAINRMMNNAEGEDKTVLSKLLETVNKSGVGNLPAKTI | -0.0106
24 | HMGDPVRVDKFLHDMNVGTRSQIRKLIKEKAVFVNDVVAKSGRVKVDPVVDQVRLGEQVITYQ | -0.245
25 | HMGDPYAILGLLPGASMEDVRHAWRRQAAENHPDRMLQRGAPPEFVEIAREKTAAINAAYARIREELSI | -0.433
26 | HMGDTIGEQKAKEIALEHAGLKSSDVTFIRAVLEYDDRNWEYDVEFYDADTYTEYDYEIDAHTGKILSFDH | 0.351
27 | HMGDTPVDFSEFIRWVDTGVVDRVELTGNEIVGTSSSGERFSTYAPPQYEGLGNKLIERDIVVVATAA | -0.0455
28 | HMGDTVSGTMLNLKPGVRVVHQIFGPGRVEETTGASLAEFRVTVRFEQKGLKTLLLQYAALQVINSEN | -1.73

Source: the domain aggregation screens of Martell et al. (2025)
